Assay results published in patent US20200249231.

Tests used:
Z-[GGGYKYRQGGGG] = target: T1, Z-[GGGYKYRQGGGG]
T1 chain: GGGYKYRQGGGG

[1] = target: T2, FRQRQ (5-mer on peptide array)
T2 chain: FRQRQ

[2] = target: T3, YKGRG (5-mer on peptide array)
T3 chain: YKGRG

[3] = target: T4, RYRQR (5-mer on peptide array)
T4 chain: RYRQR

Z-[GGGQRQRQGGGG] = target: T5, Z-[GGGQRQRQGGGG]
T5 chain: GGGQRQRQGGGG

[4] = target: T6, YKSFK (5-mer on peptide array)
T6 chain: YKSFK

[5] = target: T7, EYWLQ (5-mer on peptide array)
T7 chain: EYWLQ

[6] = target: T8, Thermus thermophilus SlyD FKBP domain with grafted KalbTG Q-tag RYRQR, 8xHis
T8 chain: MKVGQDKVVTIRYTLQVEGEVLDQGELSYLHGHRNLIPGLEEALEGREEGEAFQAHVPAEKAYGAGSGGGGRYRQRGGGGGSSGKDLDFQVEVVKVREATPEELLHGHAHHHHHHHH

[7] = target: T9, DWYLQ (5-mer on peptide array)
T9 chain: DWYLQ

Z-[GGGQYRQRGGGG] = target: T10, Z-[GGGQYRQRGGGG]
T10 chain: GGGQYRQRGGGG

[8] = target: T11, RYSQR (5-mer on peptide array)
T11 chain: RYSQR

[9] = target: T12, WQRQR (5-mer on peptide array)
T12 chain: WQRQR

[10] = target: T13, NYRFK (5-mer on peptide array)
T13 chain: NYRFK

[11] = target: T14, FYKYK (5-mer on peptide array)
T14 chain: FYKYK

[12] = target: T15, YRQTR (5-mer on peptide array)
T15 chain: YRQTR

[13] = target: T16, YQKWK (5-mer on peptide array)
T16 chain: YQKWK

Z-[GGGAYRTKGGGG] = target: T17, Z-[GGGAYRTKGGGG]
T17 chain: GGGAYRTKGGGG

Z-[GGGYRYRQGGGG] = target: T18, Z-[GGGYRYRQGGGG]
T18 chain: GGGYRYRQGGGG

[14] = target: T19, PRYRQ (5-mer on peptide array)
T19 chain: PRYRQ

[15] = target: T20, EYVLQ (5-mer on peptide array)
T20 chain: EYVLQ

Z-[GGGRQRQRGGGG] = target: T21, Z-[GGGRQRQRGGGG]
T21 chain: GGGRQRQRGGGG

[16] = target: T22, YKYRQ (5-mer on peptide array)
T22 chain: YKYRQ

Z-[GGGRYESKGGGG] = target: T23, Z-[GGGRYESKGGGG]
T23 chain: GGGRYESKGGGG

[17] = target: T24, DWALQ (5-mer on peptide array)
T24 chain: DWALQ

[18] = target: T25, YRYAK (5-mer on peptide array)
T25 chain: YRYAK

[19] = target: T26, YRYRQ (5-mer on peptide array)
T26 chain: YRYRQ

[20] = target: T27, RYGKS (5-mer on peptide array)
T27 chain: RYGKS

[21] = target: T28, RWKFK (5-mer on peptide array)
T28 chain: RWKFK

[22] = target: T29, RYSYK (5-mer on peptide array)
T29 chain: RYSYK

B1: Kutzneria albida microbial transglutaminase, activated enzyme (KalbTGt3) (protein)
chain: APLAPPLAEDRSYRTWRVEDYVEAWERYHGREMTEDERENLARGCIGVTVVNLNREDLSNPPLNLSFGSLRTAEAVQAALNKIVDTHPSPAQYEAAVAKDPILKRLKNVVKALPSWIDSAKLKASIFSKRFYSWQNPDWSEERAHTTYRPDRETDQVDMSTYRYRARPGYVNFDYGWFDQDTNTWWHANHEEPRMVVYQSTLRHYSRPLQDFDEQVFTVAFAKKDGGGSGHHHHHHHH
Reaction rate in solution (pmol/s), GLDH-coupled assay (Z-[GGGYKYRQGGGG]): 4 pmol/s
5-mer peptide array, incorporation of biotinylated amine donor [1]: the top 22 glutamine-donor substrates identified on the 5-mer peptide array with KalbTG
Array signal (log2) [1]: 8.93 log2
Array signal (log2) [2]: 12.2 log2
5-mer peptide array, incorporation of biotinylated amine donor [3]: the top 22 glutamine-donor substrates identified on the 5-mer peptide array with KalbTG
Array signal (log2) [3]: 8.96 log2
Reaction rate in solution (pmol/s), GLDH-coupled assay (Z-[GGGQRQRQGGGG]): 2.98 pmol/s
5-mer peptide array, incorporation of biotinylated glutamine donor Z-APRYRQRAAGGG-PEG-biotin [4]: the top 17 lysine-donor substrates identified on the 5-mer peptide array with KalbTG
5-mer peptide array signal with KalbTG [5]: exhibited relatively lower signal on the KalbTG array
labeling yield with KalbTG K-tag-Cy3 (SDS-PAGE, in-gel fluorescence) [6]: approximately 70% yield of a labeled protein species after 15 minutes
5-mer peptide array signal with KalbTG [7]: exhibited relatively lower signal on the KalbTG array
Reaction rate in solution (pmol/s), GLDH-coupled assay (Z-[GGGQYRQRGGGG]): 1.92 pmol/s
5-mer peptide array, incorporation of biotinylated amine donor [8]: the top 22 glutamine-donor substrates identified on the 5-mer peptide array with KalbTG
Array signal (log2) [8]: 8.93 log2
5-mer peptide array, incorporation of biotinylated amine donor [9]: the top 22 glutamine-donor substrates identified on the 5-mer peptide array with KalbTG
5-mer peptide array, incorporation of biotinylated glutamine donor Z-APRYRQRAAGGG-PEG-biotin [10]: the top 17 lysine-donor substrates identified on the 5-mer peptide array with KalbTG
5-mer peptide array, incorporation of biotinylated glutamine donor Z-APRYRQRAAGGG-PEG-biotin [11]: the top 17 lysine-donor substrates identified on the 5-mer peptide array with KalbTG
5-mer peptide array, incorporation of biotinylated amine donor [12]: the top 22 glutamine-donor substrates identified on the 5-mer peptide array with KalbTG
5-mer peptide array, incorporation of biotinylated glutamine donor Z-APRYRQRAAGGG-PEG-biotin [13]: the top 17 lysine-donor substrates identified on the 5-mer peptide array with KalbTG
Reaction Rate in Solution (pmol s^-1), GLDH-coupled assay with 200 µM glutamine donor (Z-[GGGAYRTKGGGG]): 3.65 pmol/s
KM (Z-[GGGYRYRQGGGG]): 2150 µM
Reaction rate in solution (pmol/s), GLDH-coupled assay (Z-[GGGYRYRQGGGG]): 3.52 pmol/s
Vmax (Z-[GGGYRYRQGGGG]): 73.2 pmol/s
kcat (Z-[GGGYRYRQGGGG]): 1.92 s⁻¹
kcat/KM (Z-[GGGYRYRQGGGG]): 890 M⁻¹ s⁻¹
5-mer peptide array, incorporation of biotinylated amine donor [14]: the top 22 glutamine-donor substrates identified on the 5-mer peptide array with KalbTG
5-mer peptide array signal with KalbTG [15]: exhibited relatively lower signal on the KalbTG array
Reaction rate in solution (pmol/s), GLDH-coupled assay (Z-[GGGRQRQRGGGG]): 2.06 pmol/s
5-mer peptide array, incorporation of biotinylated amine donor [16]: the top 22 glutamine-donor substrates identified on the 5-mer peptide array with KalbTG
Array signal (log2) [16]: 8.7 log2
Reaction Rate in Solution (pmol s^-1), GLDH-coupled assay with 200 µM glutamine donor (Z-[GGGRYESKGGGG]): 4.47 pmol/s
5-mer peptide array signal with KalbTG [17]: exhibited relatively lower signal on the KalbTG array
5-mer peptide array, incorporation of biotinylated glutamine donor Z-APRYRQRAAGGG-PEG-biotin [18]: the top 17 lysine-donor substrates identified on the 5-mer peptide array with KalbTG
5-mer peptide array, incorporation of biotinylated amine donor [19]: the top 22 glutamine-donor substrates identified on the 5-mer peptide array with KalbTG
Array signal (log2) [19]: 8.99 log2
Array signal (log2) [20]: 12.4 log2
5-mer peptide array, incorporation of biotinylated glutamine donor Z-APRYRQRAAGGG-PEG-biotin [21]: the top 17 lysine-donor substrates identified on the 5-mer peptide array with KalbTG
5-mer peptide array, incorporation of biotinylated glutamine donor Z-APRYRQRAAGGG-PEG-biotin [22]: the top 17 lysine-donor substrates identified on the 5-mer peptide array with KalbTG
